Test results: patent EP3988566A1

Target: soluble polymeric amyloid beta (UniProt P05067)
Experiment: ELISA, plate coated with amyloid oligomer (55 µg/ml), anti-mouse IgG-AP detection

soluble polymeric amyloid beta, sequence (P05067 672-713): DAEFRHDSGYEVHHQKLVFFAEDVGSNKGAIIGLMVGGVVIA

- O.D. at 0.078 ug/ml antibody: 0.652 O.D.
- O.D. at 0.156 ug/ml antibody: 1.04 O.D.
- O.D. at 0.312 ug/ml antibody: 1.72 O.D.
- O.D. at 0.625 ug/ml antibody: 2.81 O.D.
B1: mouse monoclonal antibody ACI-01-Ab7C2 (antibody, mouse IgG2b, V domains shown)
VH: EVQLVESGGGLVQPGGSLKLSCAASGFTFSSYGMSWVRQTPDKRLELVASINSNGGSTYYPDSVKGRFTISRDNAKNTLYLQMSSLKSEDTAMYYCASGDYWGQGSTLTVSS
VL: DVVMTQTPLSLPVSLGDQASISCRSSQSLVYSNGDTYLHWYLQKPGQSPKLLIYKVSNRFSGVPDRFSGSGSGTDFTLKISRVEAEDLGVYFCSQSTHVPWTFGGGTKLEIK
